Source: the supplement of paper PMC10567573
± gives the standard deviation.

Assay: protein stability index of a GFP-peptide fusion (GPS, HEK-293T) (PSI 1-6); higher = more stable
[1] = treatment: DMSO, c terminus: a fixed tail appended
[2] = treatment: MLN4924 1 uM, 8 h, c terminus: a fixed tail appended
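Also: 24-mer peptide tiles fused after GFP, lentivirally expressed, FACS-sorted into six equal bins by GFP/DsRed ratio, decoded by Illumina sequencing, PSI is the read-weighted mean bin number.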

Row | Sequence | protein stability index [1] | protein stability index [2] | protein stability index (treatment: DMSO, c terminus: native) | protein stability index (treatment: MLN4924 1 uM, 8 h, c terminus: native)
1 | TLCQFPETLLGDPKRRMRYFDPLR [KCNA3] | 2.26 ± 0.14 | 2.5 ± 0.34 |  | 
2 | SINALLQAEVLSRQITSPVSGING [HNF4A] | 2.7 ± 0.13 | 2.67 ± 0.2 |  | 
3 | YGETCFPKGRFERKRNPSRKKQHI [ZNF24] | 2.93 ± 0.62 | 3.24 ± 0.6 |  | 
4 | LVQTTDFFYPLVEDPYMMGRIACA [SEPHS2] | 2.34 ± 0.47 | 2.23 ± 0.29 |  | 
5 | LRFLYSDEVQIGPETVMTTLYTAK [BTBD1] | 2.48 ± 0.38 | 1.99 ± 0.24 |  | 
6 | KIIICSQNEEYLLTYINEDRISTT [PLK2] | 2.02 ± 0.35 | 2.06 ± 0.36 |  | 
7 | VRRSSRKSKAELQSEERKRIDELI [KMT5A] | 4.62 ± 0.48 | 4.51 ± 0.39 |  | 
8 | SIHCLGPIKLELLEPKANLQAALQ [VPS39] | 2.61 ± 0.34 | 2.45 ± 0.36 |  | 
9 | SILTDNPTWIIDPIDGTTNFVHRF [IMPA1] | 2.19 ± 0.26 | 2.12 ± 0.27 |  | 
10 | GEGVDKLSLPARNQAGYFMLPTVI [ALDH8A1] | 2.19 ± 0.18 | 2.36 ± 0.18 |  | 
11 | VPLARSLQISEELLSRNQLSTAAS [LCOR] | 3.67 ± 0.097 | 3.73 ± 0.076 |  | 
12 | RMDTPPPEERLEKQNEKLNNQEEE [CCDC89] | 5.55 ± 0.29 | 5.48 ± 0.28 |  | 
13 | LKLLDELPIAKVMKDYLKHKFDDI [ASB7] | 2.04 ± 0.3 | 2.14 ± 0.28 |  | 
14 | VGTRQNEELPCTCPLCTSDRGSCV [RHOBTB3] | 4.77 ± 0.27 | 4.93 ± 0.12 |  | 
15 | GSNLDDAKGLAESLELPKAIQDQL [FANCE] | 5.08 ± 0.53 | 5.3 ± 0.33 |  | 
16 | PQDQAGPGGAPRVASRNLFPKDTL [CLPTM1] | 4.41 ± 0.36 | 4.61 ± 0.28 |  | 
17 | GVYSMPAGTKVFEVPEMSPVTCCD [TLE6] | 3.84 ± 0.33 | 3.45 ± 0.24 |  | 
18 | DLAALKQRLEEETRKREDAEHNLV [PRPH] | 4.96 ± 0.46 | 4.6 ± 0.4 |  | 
19 | LSRRQLCPLTPGPGKALGPAATMA [C2CD2L] | 2.93 ± 0.37 | 3.13 ± 0.38 |  | 
20 | KETEFLRLKRTRLGLDDFESLKVI [STK38L] | 2.44 ± 0.16 | 2.56 ± 0.34 |  | 
21 | PKTGRISVPIDLQKVDQFDPFTVP [PRIM1] | 3.6 ± 0.33 | 3.34 ± 0.25 |  | 
22 | RLPGGGWTLRRTKELRKDYQGPGT [DYRK1B] | 3.14 ± 0.26 | 3.43 ± 0.35 |  | 
23 | KEEKEDEISLEDLIERERSALGPN [ZC3H15] | 5.31 ± 0.35 | 5.26 ± 0.37 |  | 

Row | Sequence | protein stability index [1] | protein stability index [2] | protein stability index (treatment: DMSO, c terminus: native) | protein stability index (treatment: MLN4924 1 uM, 8 h, c terminus: native)
24 | RTAQSEETRVWHRRDGKWQIVHFH [CAMK2A] | 3.15 ± 0.16 | 3.12 ± 0.26 |  | 
25 | SEIPRGVRVALDYEAGQVTLHNAQ [TRIM15] | 4.45 ± 0.35 | 4.57 ± 0.11 |  | 
26 | RVSNPGRLAELLLLETDAGPAASE [GADD45A] | 4.46 ± 0.28 | 4.28 ± 0.26 |  | 
27 | NSNGGNLNSPPGPHSAKTEEHTTI [CDC14A] | 5.28 ± 0.17 | 5.49 ± 0.2 |  | 
28 | LLLSILNPTRQDESIQRIAVHLCN [ZER1] | 2.75 ± 0.42 | 2.42 ± 0.45 |  | 
29 | LVLVVNTLRRIQASMAPAAALPPV [SERTAD1] | 2.35 ± 0.099 | 2.33 ± 0.2 |  | 
30 | HNSGPPPPPARGRGAPPPPPSRAP [WASL] | 5.25 ± 0.29 | 5.06 ± 0.15 |  | 
31 | SMQEDEQSGRDLQQYQSQAKQLFR [SEC22B] | 4.22 ± 0.17 | 4.35 ± 0.19 |  | 
32 | SLVQLQASHQQQVLPPRQPSALVP [MYBL2] | 3.54 ± 0.23 | 3.63 ± 0.28 |  | 
33 | NAEMVQQTTYLEDRPMFMLQCAME [LOXL2] | 3.11 ± 0.25 | 3 ± 0.1 |  | 
34 | HCRKCGQAVCGKCSSKRSSYPVMG [WDFY1] | 3.88 ± 0.3 | 3.91 ± 0.34 |  | 
35 | QEHKTDEMHTALMEACMDGHVEVA [ANKRD17] | 5.19 ± 0.4 | 5.31 ± 0.21 |  | 
36 | NTNSDPLDPSFPVEFVRHGDIIRL [POMT2] | 2.69 ± 0.38 | 2.86 ± 0.28 |  | 
37 | MYLSPPSIHCLGPIKLELLEPKAN [VPS39] | 2.26 ± 0.38 | 2.41 ± 0.39 |  | 
38 | YDQLKAFLCGRALTSDLYAPMVAG [SLC25A39] | 2.61 ± 0.2 | 2.04 ± 0.15 |  | 
39 | PCYSRQFITSCPCWLEILLNNPR [SMAD6] |  |  | 2.92 ± 0.28 | 2.77 ± 0.42
40 | LNQKGTAVETEGSGSRHPPWARGC [SLC2A12] | 3.98 ± 0.29 | 4.08 ± 0.38 |  | 
41 | AETQPQNPPAQPAPNAWQVIKGVL [CLPTM1] | 3.55 ± 0.15 | 3.78 ± 0.25 |  | 
42 | SYSQSSNLFRHQRRHNAEKLLNVV [ZNF24] | 2.58 ± 0.27 | 2.97 ± 0.41 |  | 
43 | IVNQWSEKFSDEGDSDSALDSVSP [DLC1] | 5.32 ± 0.18 | 5.24 ± 0.23 |  | 
44 | LIYDFIEDQGGLEAVRQEMRRQEP [WAS] | 2.55 ± 0.28 | 2.75 ± 0.42 |  | 
45 | ACGGHVELAALLIERGASLEEVND [ANKRD17] | 3.91 ± 0.29 | 3.73 ± 0.22 |  | 
46 | AFHGAPSHLPTRSPSFPEAPDSGR [TBX6] | 4.32 ± 0.26 | 4.37 ± 0.38 |  | 

Row | Sequence | protein stability index [1] | protein stability index [2] | protein stability index (treatment: DMSO, c terminus: native) | protein stability index (treatment: MLN4924 1 uM, 8 h, c terminus: native)
47 | PCVRPGVSGSPVTQNHAASALPTG [FBF1] | 4.45 ± 0.26 | 4.5 ± 0.06 |  | 
48 | KVLIQKNLGPKSKVLILRNHGLVS [ADD1] | 2.08 ± 0.36 | 2.16 ± 0.33 |  | 
49 | VIVPKEEGVISVSEDRTVRVWLKR [WDFY2] | 2.78 ± 0.32 | 3.17 ± 0.2 |  | 
50 | IQQLLEPQQYMAFLPHHIMVKIFR [FBXO34] | 2.13 ± 0.31 | 2.53 ± 0.29 |  | 
51 | MQENITKVIERGERLDELQDKSES [VAMP4] | 5.04 ± 0.37 | 5.05 ± 0.41 |  | 
52 | GGDGDDMEIFMEEMREIRRKLREL [BEX3] | 3.13 ± 0.49 | 2.04 ± 0.4 |  | 
53 | GCKGFFRRSMKRKALFTCPFNGDC [VDR] | 2.47 ± 0.43 | 2.21 ± 0.14 |  | 
54 | KSYIFEGALGMSNRDSYFYAAIVA [VMA21] | 2.96 ± 0.66 | 2.6 ± 0.46 |  | 
55 | WMQANYDPLSDSDSMTSQAKPEAL [ELOA2] | 4.72 ± 0.12 | 4.54 ± 0.26 |  | 
56 | PNGVQLSPAEDFVLVAETTMARIR [APMAP] | 3.21 ± 0.21 | 3.5 ± 0.22 |  | 
57 | CQACRFMKCLKVGMLKEGVRLDRV [ESRRG] | 2.6 ± 0.45 | 2.04 ± 0.16 |  | 
58 | QICRAQGLETLFSKAQELGGAGRE [ZSWIM9] | 3.64 ± 0.23 | 3.66 ± 0.26 |  | 
59 | GPGPQLRRGWRPSSREDSLEAGLP [CHGA] | 3.86 ± 0.14 | 4.24 ± 0.31 |  | 
60 | RKQARQLENELDLKLVSFSKLCTS [GOSR1] | 3.03 ± 0.34 | 3.22 ± 0.54 |  | 
61 | APEFIKVRENLRRIATLTSEEREL [FAM107A] | 4.48 ± 0.31 | 4.62 ± 0.16 |  | 
62 | VVAAVGKELIIFRLVAPTEGSLEW [WDR41] | 2.3 ± 0.21 | 2.37 ± 0.28 |  | 
63 | RCHTVPCAGSTALQEPGEPQGPPA [PXN] | 4.89 ± 0.15 | 4.92 ± 0.25 |  | 
64 | KIGVGAMTWSPLACGIVSGKYDSG [KCNAB2] | 2.81 ± 0.27 | 2.85 ± 0.61 |  | 
65 | ELLALETALGGQCVDRQEVAEITK [TCAP] | 4.15 ± 0.26 | 4.5 ± 0.24 |  | 
66 | HKVKAEEEKKAKVAPPAKQAQQKK [BRD3] | 5.5 ± 0.22 | 5.5 ± 0.29 |  | 
67 | PPGLPRVSAYVDTTADLDRKLSFS [SPATS1] | 3.79 ± 0.26 | 3.96 ± 0.23 |  | 
68 | MYYRGSAAAIIVYDITKEETFSTL [RAB22A] | 2.75 ± 0.69 | 2.72 ± 0.84 |  | 
69 | HFSQIVIFMLCTLVLAIPLLLILV [OR10K2] | 2.24 ± 0.25 | 2.25 ± 0.19 |  | 

Row | Sequence | protein stability index [1] | protein stability index [2] | protein stability index (treatment: DMSO, c terminus: native) | protein stability index (treatment: MLN4924 1 uM, 8 h, c terminus: native)
70 | FFGMAFNFIVNDSRKKPIWNVLMW [SOAT1] | 2.6 ± 0.55 | 2.19 ± 0.73 |  | 
71 | PGAGVPSGSGGTVAPATMGSARSH [ZBTB22] | 4.75 ± 0.16 | 4.8 ± 0.15 |  | 
72 | LLSLKQNHEQEVNTLRCQLGDRLN [KRT33B] | 3.38 ± 0.16 | 3.46 ± 0.2 |  | 
73 | HSFELDEKALASILLQDHIRDLDV [ATL3] | 3.26 ± 0.33 | 3.26 ± 0.29 |  | 
74 | YKENFLKRFQLTKLPPYLIFCIKR [USP39] | 3.02 ± 0.77 | 2.82 ± 0.43 |  | 
75 | YGMQTQNYPKGGLLDSMCPASTPS [ETS2] | 3.79 ± 0.19 | 3.64 ± 0.18 |  | 
76 | KSKAELQSEERKRIDELIESGKEE [KMT5A] | 5.59 ± 0.25 | 5.67 ± 0.21 |  | 
77 | LCYPPAKGCLKLCRRCYDWIHRPG [SPRY1] | 2.06 ± 0.094 | 2.27 ± 0.33 |  | 
78 | AAHRLARRLYHLEGFQRCDVARQL [PSD2] | 2.21 ± 0.43 | 2.46 ± 0.46 |  | 
79 | FIALLILFILSTLVVDYIDEGRLV [SOAT1] | 3.18 ± 0.3 | 3.26 ± 0.5 |  | 
80 | GNFPTMEVKPKDIIHVVKDQLIGQ [TENT5D] | 4.08 ± 0.33 | 3.98 ± 0.35 |  | 
81 | YEHHYHTLHGNVCSFCKRAFPSGH [ZNF511] | 2.73 ± 0.37 | 3.19 ± 0.54 |  | 
82 | ILEDMRCQYEALVENNRRDVEAWF [KRT36] | 2.49 ± 0.19 | 2.84 ± 0.45 |  | 
83 | PYFKSNDVVCKNQDELRNRSVKVI [FAN1] | 3.78 ± 0.16 | 4.01 ± 0.33 |  | 
84 | KLREFLRVEEQAILDAMAEETRQK [TRIM35] | 2.85 ± 0.53 | 3.34 ± 0.18 |  | 
85 | DSGFLGLRPTSVDPALRRRRRGPR [NOP53] | 5.15 ± 0.4 | 5.17 ± 0.25 |  | 
86 | ETCSCGYYLHPLPAGAEYCSSARH [SCNN1D] | 3.52 ± 0.36 | 3.63 ± 0.43 |  | 
87 | FLDIPRSRLVKYPLLLKEILKHTP [NET1] | 1.99 ± 0.55 | 2.34 ± 0.18 |  | 
88 | SESRKPTVSIMEPGETRRNSYPRA [TRIM29] | 4.79 ± 0.12 | 4.43 ± 0.19 |  | 
89 | RKKEAKRKISSLSFTLEEEEEGGE [FAM50A] | 5.33 ± 0.41 | 5.67 ± 0.41 |  | 
